Assay results as given in patent US20210024620A1.

Tests used:
[1] = molecular target: biotinylated human FcRn (p51 subunit residues 24-297 with C-terminal Avi-tag; beta2-microglobulin residues 21-119) (human) (UniProt P55899); assay: Biacore SPR, pH 7.4, steady state
[2] = molecular target: biotinylated human FcRn (p51 subunit residues 24-297 with C-terminal Avi-tag; beta2-microglobulin residues 21-119) (human) (UniProt P55899); assay: Biacore SPR, pH 6.0
[3] = molecular target: biotinylated human FcRn (p51 subunit residues 24-297 with C-terminal Avi-tag; beta2-microglobulin residues 21-119) (human) (UniProt P55899); assay: Biacore; affinity at pH 6.0 (M^-1) over steady state RU at pH 7.4
[4] = molecular target: biotinylated human FcRn (p51 subunit residues 24-297 with C-terminal Avi-tag; beta2-microglobulin residues 21-119) (human) (UniProt P55899); assay: Biacore; inverse ratio (RU at pH 7.4 over affinity at pH 6.0)
rat FcRn (rat) [5] = molecular target: rat FcRn (rat) (UniProt P13599); assay: Biacore, pH 6.0, apparent KD
rat FcRn (rat) [6] = molecular target: rat FcRn (rat) (UniProt P13599); assay: Biacore SPR, pH 6.0
rat FcRn (rat) [7] = molecular target: rat FcRn (rat) (UniProt P13599); assay: Biacore SPR, pH 7.4, 1000 nM antibody
[8] = molecular target: FcRn immobilised on the FcRn affinity column (biotinylated cynoFcRn in one experiment, biotinylated hFcRn in another); assay: FcRn affinity chromatography, linear pH gradient; species of the immobilised FcRn not given
[9] = molecular target: biotinylated human FcRn (human) (UniProt P55899); assay: Biacore SPR, pH 7.4, 1000 nM antibody
rat FcRn (rat) [10] = molecular target: rat FcRn (rat) (UniProt P13599); assay: Biacore SPR, pH 7.4
[11] = molecular target: biotinylated human FcRn (human) (UniProt P55899); assay: Biacore SPR, pH 6.0
[12] = molecular target: biotinylated human FcRn (human) (UniProt P55899); assay: Biacore SPR, pH 7.4

Chain of rat FcRn (rat) (P13599 23-298 limits assumed, chain 1 of 2): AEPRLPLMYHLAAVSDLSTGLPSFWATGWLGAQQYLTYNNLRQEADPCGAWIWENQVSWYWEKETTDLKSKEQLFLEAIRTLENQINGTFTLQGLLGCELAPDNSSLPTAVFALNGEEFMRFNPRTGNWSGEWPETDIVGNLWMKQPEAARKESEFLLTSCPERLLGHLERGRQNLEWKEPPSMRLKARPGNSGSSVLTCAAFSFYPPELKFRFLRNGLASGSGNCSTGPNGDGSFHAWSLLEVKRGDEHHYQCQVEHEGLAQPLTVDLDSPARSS
Chain of rat FcRn (rat) (P07151 21-119 limits assumed, chain 2 of 2, further chain): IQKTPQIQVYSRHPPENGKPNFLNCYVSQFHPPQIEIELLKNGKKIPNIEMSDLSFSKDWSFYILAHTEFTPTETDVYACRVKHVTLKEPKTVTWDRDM
Chain of biotinylated human FcRn (p51 subunit residues 24-297 with C-terminal Avi-tag; beta2-microglobulin residues 21-119) (human) (P55899 24-297 limits assumed, chain 1 of 2): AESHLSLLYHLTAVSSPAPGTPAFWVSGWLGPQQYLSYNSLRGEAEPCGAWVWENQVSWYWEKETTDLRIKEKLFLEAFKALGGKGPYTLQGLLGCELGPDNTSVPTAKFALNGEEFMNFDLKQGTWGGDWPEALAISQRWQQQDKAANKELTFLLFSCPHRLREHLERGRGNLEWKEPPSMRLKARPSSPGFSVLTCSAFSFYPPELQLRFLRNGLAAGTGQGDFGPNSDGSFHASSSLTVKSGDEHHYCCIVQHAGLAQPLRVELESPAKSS
Chain of biotinylated human FcRn (p51 subunit residues 24-297 with C-terminal Avi-tag; beta2-microglobulin residues 21-119) (human) (P61769 21-119 limits assumed, chain 2 of 2, further chain): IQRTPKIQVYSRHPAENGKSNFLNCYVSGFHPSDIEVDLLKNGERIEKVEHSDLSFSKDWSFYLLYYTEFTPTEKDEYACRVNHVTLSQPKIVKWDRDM
Chain of biotinylated human FcRn (human) (P55899 24-297 limits assumed, chain 1 of 2): as the sequence (P55899 24-297 limits assumed, chain 1 of 2) above
Chain of biotinylated human FcRn (human) (P61769 21-119 limits assumed, chain 2 of 2, further chain): as the sequence (P61769 21-119 limits assumed, chain 2 of 2, further chain) above

Substance | Steady State Binding, pH 7.4 (RU) [1] [RU] | Ka [2] [M⁻¹] | Ratio (pH 6.0/pH 7.4) [3] | Ratio (pH 6.0/pH 7.4) [4] | Kd (rat FcRn (rat) [5]) [nM] | Kd (rat FcRn (rat) [6]) [nM] | Steady State RU (rat FcRn (rat) [7]) [RU] | FcRn affinity column elution pH [8] [pH] | Steady State RU [9] [RU] | Steady State RU (rat FcRn (rat) [10]) [RU] | Kd [11] [nM] | Steady State RU [12] [RU] | koff (rat FcRn (rat) [6]) [s⁻¹] | kon (rat FcRn (rat) [6]) [M⁻¹ s⁻¹] | koff [11] [s⁻¹] | kon [11] [M⁻¹ s⁻¹] | Ratio [4]
mAb1 MDQF (T256D/T307Q/N434F) (antibody) | 55.3 | 6.62e+06 | – | – | – | – | – | – | – | – | – | – | – | – | – | – | –
mAb1 YEWN (M252Y/T256E/T307W) (antibody) | 69.6 | 6.41e+06 | 92100 | 1.09e-05 | – | – | – | – | – | – | – | – | – | – | – | – | –
mAb1 MEQY (T256E/T307Q/N434Y) (antibody) | 38.6 | 2.38e+07 | 617000 | – | – | – | – | – | – | – | – | – | – | – | – | – | –
mAb1 YTWF (M252Y/T307W/N434F) (antibody) | 62.6 | 6.54e+07 | 1.04e+06 | 9.57e-07 | – | – | – | – | – | – | – | – | – | – | – | – | –
mAb1 K288N (antibody) | – | – | – | – | 190 | 190 | 20.4 | 7.39 | – | – | – | – | – | – | – | – | –
mAb1 K288D (antibody) | – | – | – | – | 149 | 149 | 21.9 | 7.33 | 3.8 | – | – | – | – | – | – | – | –
mAb1 MEQN (T256E/T307Q) (antibody) | – | 2e+06 | – | – | – | 10.7 | – | – | – | 23.4 | 499 | – | – | – | – | – | –
mAb1 MTQF (T307Q/N434F) (antibody) | 34.2 | 2.33e+07 | 681000 | 1.47e-06 | – | 3.89 | – | – | – | 62.5 | 42.9 | 34.2 | 0.0004 | 104000 | 0.0246 | 574000 | –
mAb1 MEQF (T256E/T307Q/N434F) (antibody) | – | 142000 | – | – | – | – | – | – | – | – | – | – | – | – | – | – | –
mAb1 MDTF (T256D/N434F) (antibody) | 29.2 | 3.34e+07 | 1.14e+06 | 8.74e-07 | – | 1.78 | – | – | – | 63 | 29.9 | 29.2 | 0.00039 | 218000 | 0.029 | 968000 | –
mAb1 MDQY (T256D/T307Q/N434Y) (antibody) | 49.4 | 3.69e+07 | 747000 | – | – | – | – | – | – | – | – | – | – | – | – | – | 1.34e-06
mAb1 MDTY (T256D/N434Y) (antibody) | 37.1 | 6.41e+07 | 1.73e+06 | – | – | 0.6 | – | – | – | 71.6 | 15.6 | 37.1 | 0.00025 | 413000 | 0.0285 | 1.83e+06 | –
mAb1 YTQN (M252Y/T307Q) (antibody) | 10.6 | 3.6e+06 | 340000 | 2.94e-06 | – | 4.11 | – | – | – | 49.2 | 278 | 10.6 | 0.00105 | 255000 | 0.096 | 345000 | –
mAb1 METF (T256E/N434F) (antibody) | 23.3 | 1.28e+07 | 549000 | – | – | 7.53 | – | – | – | 59 | 78.2 | 23.3 | 0.00081 | 108000 | 0.0419 | 536000 | 1.82e-06
mAb1 METY (T256E/N434Y) (antibody) | 26.8 | 1.6e+07 | 597000 | – | – | 7.71 | – | – | – | 62.2 | 62.6 | 26.8 | 0.00098 | 127000 | 0.0393 | 628000 | –
mAb1 MEWF (T256E/T307W/N434F) (antibody) | 41.9 | 5.62e+07 | 1.34e+06 | 7.46e-07 | – | – | – | – | – | – | – | – | – | – | – | – | –
mAb1 YETY (M252Y/T256E/N434Y) (antibody) | 22.6 | 3.34e+07 | 1.48e+06 | 6.77e-07 | – | – | – | – | – | – | – | – | – | – | – | – | –
mAb1 MTQY (T307Q/N434Y) (antibody) | 38.4 | 3.09e+07 | 805000 | 1.24e-06 | – | 4.11 | – | – | – | 63 | 32.4 | 38.4 | 0.00048 | 116000 | 0.0202 | 622000 | –
mAb1 YTTF (M252Y/N434F) (antibody) | 43.8 | 5.56e+07 | 1.27e+06 | – | – | 0.29 | – | – | – | 79.3 | 18 | 43.8 | 0.00012 | 403000 | 0.023 | 1.27e+06 | 7.88e-07
mAb1 MTWF (T307W/N434F) (antibody) | 30.5 | 2.62e+07 | – | – | – | 2.7 | – | – | – | 65.1 | 38.2 | 30.5 | 0.00057 | – | – | – | –
mAb1 MTWY (T307W/N434Y) (antibody) | 37.2 | 4.65e+07 | 1.25e+06 | 8e-07 | – | 0.62 | – | – | – | 69.6 | 21.5 | 37.2 | 0.0003 | 480000 | 0.0317 | 1.48e+06 | –
mAb1 MDWF (T256D/T307W/N434F) (antibody) | 47.1 | 2.81e+07 | 597000 | 1.68e-06 | – | – | – | – | – | – | – | – | – | – | – | – | –
mAb1 YDWN (M252Y/T256D/T307W) (antibody) | 25.9 | 1.01e+07 | 390000 | 2.56e-06 | – | – | – | – | – | – | – | – | – | – | – | – | –
mAb1 MEWN (T256E/T307W) (antibody) | – | 3.1e+06 | – | – | – | 10.6 | – | – | – | 33 | 323 | – | – | – | – | – | –
mAb1 YTQY (M252Y/T307Q/N434Y) (antibody) | 71.5 | 6.33e+07 | 885000 | 1.13e-06 | – | – | – | – | – | – | – | – | – | – | – | – | –
mAb1 MEWY (T256E/T307W/N434Y) (antibody) | 46.6 | 7.04e+07 | 1.51e+06 | 6.62e-07 | – | – | – | – | – | – | – | – | – | – | – | – | –
mAb1 YDTF (M252Y/T256D/N434F) (antibody) | 57.7 | 2.96e+07 | 513000 | 1.95e-06 | – | – | – | – | – | – | – | – | – | – | – | – | –
mAb1 YTQF (M252Y/T307Q/N434F) (antibody) | 59.9 | 5.65e+07 | 943000 | 1.06e-06 | – | – | – | – | – | – | – | – | – | – | – | – | –
